# Source: patent US20240116985A1 (published 2024)
# Starred links: 1 amine or outer side, 2 acyl side, 3 side chain; linkers in the order of their positions; H or OH if unused. Positions of bridges follow the written chain, without caps; N, C: chain ends. Non-standard residues stand in square brackets, D forms with d. Primed or numbered codes have the meaning given here. B5(4) = 2,2-bis(4-pentenyl)glycine = 2-amino-2-(pent-4-en-1-yl)hept-6-enoic acid (stitching residue), C=CCCCC(CCCC=C)(N[*:1])C(=O)[*:2]; B5(5) = 2,2-bis(4-pentenyl)glycine, 2-amino-2-(pent-4-en-1-yl)hept-6-enoic acid (stitching residue), C=CCCCC(CCCC=C)(N[*:1])C(=O)[*:2]; PyrS″ = (S)-1-((allyloxy)carbonyl)-3-aminopyrrolidine-3-carboxylic acid (stapling residue), C=CCOC(=O)N1CC[C@@](N[*:1])(C(=O)[*:2])C1; PyrS = (S)-1-((allyloxy)carbonyl)-3-aminopyrrolidine-3-carboxylic acid, C=CCOC(=O)N1CC[C@@](N[*:1])(C(=O)[*:2])C1; B5(3) = 2,2-bis(4-pentenyl)glycine (stitching residue), C=CCCCC(CCCC=C)(N[*:1])C(=O)[*:2]; B5 = 2-amino-2-(pent-4-en-1-yl)hept-6-enoic acid, C=CCCCC(CCCC=C)(N[*:1])C(=O)[*:2]; Phe(3-CF3) = N[C@@H](Cc1cccc(C(F)(F)F)c1)C(=O)O; Phe(4-CF3) = N[C@@H](Cc1ccc(C(F)(F)F)cc1)C(=O)O; Phe(F5) = N[C@@H](Cc1c(F)c(F)c(F)c(F)c1F)C(=O)O; Bip = N[C@@H](Cc1ccc(-c2ccccc2)cc1)C(=O)O; 2Nal = N[C@@H](Cc1ccc2ccccc2c1)C(=O)O; Bta = N[C@@H](Cc1csc2ccccc12)C(=O)O; αAllylPro = C=CC[C@@]1(C(=O)O)CCCN1; d(αMeL) = CC(C)C[C@@](C)(N)C(=O)O; 4Pal = N[C@@H](Cc1ccncc1)C(=O)O; R8 = C=CCCCCCC[C@@](C)(N)C(=O)O; S8 = C=CCCCCCC[C@](C)(N)C(=O)O
# T1: full-length beta-Catenin (Uniprot ID P35222) (Homo sapiens (Human), UniProt P35222 2-781)
# T1 construct: The AlphaScreen assay used a Histidine (Nickel Chelate) detection kit, so a His tag is likely, but no tag is described; also called B-Catenin; bCat
# T1 sequence: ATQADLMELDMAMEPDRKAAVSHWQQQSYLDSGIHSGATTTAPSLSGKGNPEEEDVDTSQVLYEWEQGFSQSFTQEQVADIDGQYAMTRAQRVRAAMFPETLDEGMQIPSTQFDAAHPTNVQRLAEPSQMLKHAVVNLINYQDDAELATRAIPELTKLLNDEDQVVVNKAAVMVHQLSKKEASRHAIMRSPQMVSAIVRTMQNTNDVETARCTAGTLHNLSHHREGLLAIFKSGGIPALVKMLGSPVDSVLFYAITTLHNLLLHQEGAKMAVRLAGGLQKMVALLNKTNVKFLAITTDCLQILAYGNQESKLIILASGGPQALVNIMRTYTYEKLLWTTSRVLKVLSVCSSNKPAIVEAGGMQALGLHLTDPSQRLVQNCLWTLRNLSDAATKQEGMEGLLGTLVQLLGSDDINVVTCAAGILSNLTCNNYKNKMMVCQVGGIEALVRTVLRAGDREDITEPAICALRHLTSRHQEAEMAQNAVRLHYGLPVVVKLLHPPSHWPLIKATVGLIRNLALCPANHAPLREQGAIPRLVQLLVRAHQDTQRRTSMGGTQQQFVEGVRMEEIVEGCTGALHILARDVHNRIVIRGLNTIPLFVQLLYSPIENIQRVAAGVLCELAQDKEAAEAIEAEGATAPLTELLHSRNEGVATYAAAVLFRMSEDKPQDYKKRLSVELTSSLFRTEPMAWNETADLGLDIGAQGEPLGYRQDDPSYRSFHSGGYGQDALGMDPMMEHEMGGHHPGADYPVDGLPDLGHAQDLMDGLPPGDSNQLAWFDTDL
# Molecular target: T1, full-length beta-Catenin (Uniprot ID …)
# Test: AlphaScreen competition: full-length beta-catenin + biotin-TCF4(10-53) probe, peptide titrated
# Description: Equal volume of the titrated peptide was added to the plate and incubated for 15 minutes at 20° C. Then 4 uL of donor and 4 uL acceptor beads at 10 ug/mL were added to the plate, for a 16 uL reaction pool and protected from light for 60 minutes at 20° C. prior to read. Reads were performed on a CLARIOstar plate reader (BMG Labtech) in duplicate, and data were fitted to a 1:1 binding model with hill slope using an in-house script. All provided concentrations are final concentrations.
row,EC50 [µM],Binder
1,7.64,"Ac-[αAllylPro]DA[B5(4)]D[2Nal]AAFV[S8]FWQ-NH2 (staple 1-4, 4-11, Stapled peptide composition; also called Ac-PL3-Asp-Ala-B5-Asp-2NapA-Ala-Ala-Phe-Val-S8-Phe-Trp-Gln-NH2) [I-232]"
2,6.58,"Ac-FDA[R8]DDAAFT[PyrS]FWQ-NH2 (staple 4-11, Stapled peptide composition; also called Ac-Phe-Asp-Ala-R8-Asp-Asp-Ala-Ala-Phe-Thr-PyrS-Phe-Trp-Gln-NH2) [I-221]"
3,5.91,"Ac-FDA[R8]DDAAFV[PyrS][Phe(F5)]WQ-NH2 (staple 4-11, Stapled peptide composition; also called Ac-Phe-Asp-Ala-R8-Asp-Asp-Ala-Ala-Phe-Val-PyrS-Pff-Trp-Gln-NH2) [I-228]"
4,7.63,"Ac-FDA[R8]DDAAFV[PyrS″][Phe(F5)]WQ-NH2 (staple 4-11, Stapled peptide composition; also called Ac-Phe-Asp-Ala-R8-Asp-Asp-Ala-Ala-Phe-Val-PyrS-Pff-Trp-Gln-NH2) [I-226]"
5,7.63,"Ac-FDA[R8]DDAAFV[PyrS][Phe(F5)]WQ-NH2 (staple 4-11, Stapled peptide composition; also called Ac-Phe-Asp-Ala-R8-Asp-Asp-Ala-Ala-Phe-Val-PyrS-Pff-Trp-Gln-NH2) [I-225]"
6,5.91,"Ac-FDA[R8]DDAAFV[PyrS″][Phe(F5)]WQ-NH2 (staple 4-11, Stapled peptide composition; also called Ac-Phe-Asp-Ala-R8-Asp-Asp-Ala-Ala-Phe-Val-PyrS-Pff-Trp-Gln-NH2) [I-227]"
7,≥ 10,"Ac-[αAllylPro]DA[B5(4)]D[d(αMeL)]AAFV[S8]FWQ-NH2 (staple 1-4, 4-11, Stapled peptide composition; also called Ac-PL3-Asp-Ala-B5-Asp-DaMeL-Ala-Ala-Phe-Val-S8-Phe-Trp-Gln-NH2) [I-216]"
8,0.384,"Ac-[αAllylPro]DA[B5(3)]DDAA[Phe(3-CF3)]V[S8]FWQ-NH2 (staple 1-4, 4-11, Stapled peptide composition; also called Ac-PL3-Asp-Ala-B5-Asp-Asp-Ala-Ala-3F3MeF-Val-S8-Phe-Trp-Gln-NH2) [I-236]"
9,2.96,"Ac-[αAllylPro]DA[B5(4)]D[Phe(3-CF3)]AAFV[S8]FWQ-NH2 (staple 1-4, 4-11, Stapled peptide composition; also called Ac-PL3-Asp-Ala-B5-Asp-3F3MeF-Ala-Ala-Phe-Val-S8-Phe-Trp-Gln-NH2) [I-245]"
10,3.97,"Ac-[αAllylPro]DA[B5(4)]D[Phe(4-CF3)]AAFV[S8]FWQ-NH2 (staple 1-4, 4-11, Stapled peptide composition; also called Ac-PL3-Asp-Ala-B5-Asp-4F3MeF-Ala-Ala-Phe-Val-S8-Phe-Trp-Gln-NH2) [I-246]"
11,2.96,"Ac-[αAllylPro]DA[B5(5)]D[Phe(3-CF3)]AAFV[S8]FWQ-NH2 (staple 1-4, 4-11, Stapled peptide composition; also called Ac-PL3-Asp-Ala-B5-Asp-3F3MeF-Ala-Ala-Phe-Val-S8-Phe-Trp-Gln-NH2) [I-244]"
12,3.97,"Ac-[αAllylPro]DA[B5(4)]D[Phe(4-CF3)]AAFV[S8]FWQ-NH2 (staple 1-4, 4-11, Stapled peptide composition; also called Ac-PL3-Asp-Ala-B5-Asp-4F3MeF-Ala-Ala-Phe-Val-S8-Phe-Trp-Gln-NH2) [I-247]"
13,5.9,"Ac-[αAllylPro]DA[B5(3)]DWAAFV[S8]FWQ-NH2 (staple 1-4, 4-11, Stapled peptide composition; also called Ac-PL3-Asp-Ala-B5-Asp-Trp-Ala-Ala-Phe-Val-S8-Phe-Trp-Gln-NH2) [I-233]"
14,6.53,"Ac-[αAllylPro]DA[B5(4)]D[Bta]AAFV[S8]FWQ-NH2 (staple 1-4, 4-11, Stapled peptide composition; also called Ac-PL3-Asp-Ala-B5-Asp-BztA-Ala-Ala-Phe-Val-S8-Phe-Trp-Gln-NH2) [I-231]"
15,4.12,"Ac-FDA[R8]DDAAFT[PyrS]FWQ-NH2 (staple 4-11, Stapled peptide composition; also called Ac-Phe-Asp-Ala-R8-Asp-Asp-Ala-Ala-Phe-Thr-PyrS-Phe-Trp-Gln-NH2) [I-224]"
16,0.267,"Ac-[αAllylPro]DA[B5(3)]DDAA[Phe(3-CF3)]V[S8]FWQ-NH2 (staple 1-4, 4-11, Stapled peptide composition; also called Ac-PL3-Asp-Ala-B5-Asp-Asp-Ala-Ala-3F3MeF-Val-S8-Phe-Trp-Gln-NH2) [I-238]"
17,7.21,"Ac-[αAllylPro]DA[B5][4Pal]EAAFV[S8]FWQ-NH2 (staple 1-4, 4-11, Stapled (stitched) peptide composition; also called Ac-PL3-Asp-Ala-B5-4pyrA-Glu-Ala-Ala-Phe-Val-S8-Phe-Trp-Gln-NH2) [I-214]"
18,6.58,"Ac-FDA[R8]DDAAFT[PyrS″]FWQ-NH2 (staple 4-11, Stapled peptide composition; also called Ac-Phe-Asp-Ala-R8-Asp-Asp-Ala-Ala-Phe-Thr-PyrS-Phe-Trp-Gln-NH2) [I-222]"
19,7.34,"Ac-[αAllylPro]DA[B5(3)]D[Bip]AAFV[S8]FWQ-NH2 (staple 1-4, 4-11, Stapled peptide composition; also called Ac-PL3-Asp-Ala-B5-Asp-Bip-Ala-Ala-Phe-Val-S8-Phe-Trp-Gln-NH2) [I-235]"
20,≥ 10,"Ac-[αAllylPro]DA[B5]D[d(αMeL)]AAFV[S8]FWQ-NH2 (staple 1-4, 4-11, Stapled peptide composition; also called Ac-PL3-Asp-Ala-B5-Asp-DaMeL-Ala-Ala-Phe-Val-S8-Phe-Trp-Gln-NH2) [I-215]"
